Measured values: the supplement of paper PMC7125110
± gives the standard error. For some of these results: Variants at the floor of the assay were thinned out.

B1: glmS ribozyme (parent)
chain: AUAAAAGCGCCAGAACUACAGAAAUGUAGUUGACGAGGAGGAGGUUUAUCGAAUUUUCGGCGGAUGCCUCCAAA

Columns and labels:
Conditions in all cases: with glucosamine-6-phosphate
[1] = variants of: B1; test: kcat; higher = faster cleavage; RNA array
Procedure, shortened: (§1)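 Ribozyme variants carrying barcodes were transcribed in situ on sequenced MiSeq chips by E. coli RNA polymerase and tracked at 37 °C with a hybridised Cy3 probe. They were exposed to 40 μM to 10 mM glucosamine-6-phosphate in HEPES/KCl/Mg(OAc)2 buffer. kobs came from exponential decay fits of normalised per-tile medians, and kcat and KM from weighted Michaelis–Menten fits.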

[2] = variants of: B1; test: KM; higher = weaker cofactor use; RNA array
Procedure, shortened: as §1

[3] = variants of: B1; test: self-cleavage kobs at 640 uM GlcN6P; higher = faster cleavage; RNA array
Procedure, shortened: as §1

[4] = variants of: B1; test: self-cleavage kobs at 2500 uM GlcN6P; higher = faster cleavage; RNA array
Procedure, shortened: as §1

[5] = variants of: B1; test: self-cleavage kobs at 10000 uM GlcN6P; higher = faster cleavage; RNA array
Procedure, shortened: as §1

[6] = variants of: B1; test: self-cleavage kobs at 160 uM GlcN6P; higher = faster cleavage; RNA array
Procedure, shortened: as §1

[7] = variants of: B1; test: self-cleavage kobs at 40 uM GlcN6P; higher = faster cleavage; RNA array
Procedure, shortened: as §1

Variant | kcat [1] | KM [2] | self-cleavage kobs at 640 uM GlcN6P [3] | self-cleavage kobs at 2500 uM GlcN6P [4] | self-cleavage kobs at 10000 uM GlcN6P [5] | self-cleavage kobs at 160 uM GlcN6P [6] | self-cleavage kobs at 40 uM GlcN6P [7]
A6G C68U | 0.000115 ± 2.9e-06 s⁻¹ | 728 ± 79 µM | 5.56e-05 ± 1.1e-05 s⁻¹ | 8.68e-05 ± 1.5e-05 s⁻¹ | 0.000107 ± 1e-05 s⁻¹ | – | –
C16A C67A | 0.000254 ± 2.7e-05 s⁻¹ | 598 ± 150 µM | 0.000123 ± 1.2e-05 s⁻¹ | 0.00021 ± 3.3e-05 s⁻¹ | 0.000248 ± 2.9e-05 s⁻¹ | 6.97e-05 ± 1.3e-05 s⁻¹ | –
U45C C67U | 0.00406 ± 0.00066 s⁻¹ | 2250 ± 580 µM | 0.000935 ± 0.00014 s⁻¹ | 0.00203 ± 0.00032 s⁻¹ | 0.00337 ± 0.00031 s⁻¹ | 0.000146 ± 5.8e-05 s⁻¹ | 8.28e-05 ± 9.7e-06 s⁻¹
U47G U49G | 8.66e-05 ± 9.3e-06 s⁻¹ | – | – | – | 8.15e-05 ± 1.2e-05 s⁻¹ | – | –
A15C U47A | 0.00412 ± 0.0012 s⁻¹ | 2080 ± 870 µM | 0.000773 ± 0.00011 s⁻¹ | 0.00226 ± 0.00034 s⁻¹ | 0.00367 ± 0.00044 s⁻¹ | 0.000266 ± 5.3e-05 s⁻¹ | 0.000116 ± 1.4e-05 s⁻¹
A15C U47G | 0.000994 ± 5.2e-05 s⁻¹ | 1270 ± 120 µM | 0.000312 ± 3.6e-05 s⁻¹ | 0.000675 ± 8.1e-05 s⁻¹ | 0.000889 ± 9.5e-05 s⁻¹ | 0.000121 ± 2e-05 s⁻¹ | 3.18e-05 ± 7.5e-06 s⁻¹
C16G U47A | 0.00274 ± 0.00078 s⁻¹ | 1710 ± 700 µM | 0.000755 ± 0.00013 s⁻¹ | 0.00124 ± 0.0002 s⁻¹ | 0.00329 ± 0.00047 s⁻¹ | 0.00027 ± 3.9e-05 s⁻¹ | 6.21e-05 ± 9.9e-06 s⁻¹
U47C U56C A64G | 6.84e-05 ± 1.6e-05 s⁻¹ | – | 6.85e-05 ± 1.9e-05 s⁻¹ | 5.93e-05 ± 1.5e-05 s⁻¹ | – | – | –
U31A U65G | 0.00228 ± 0.00054 s⁻¹ | 2390 ± 1000 µM | 0.000521 ± 8.8e-05 s⁻¹ | 0.000854 ± 0.00019 s⁻¹ | 0.00205 ± 0.00027 s⁻¹ | 0.000211 ± 6.2e-05 s⁻¹ | 3.37e-05 ± 1.5e-05 s⁻¹
G13U A52U | 1.58e-05 ± 2.6e-06 s⁻¹ | – | – | – | – | < 1e-05 s⁻¹ | < 1e-05 s⁻¹
G13U U56A C67U | 0.000254 ± 9.5e-05 s⁻¹ | – | – | 0.000115 ± 3.1e-05 s⁻¹ | 0.000167 ± 3.2e-05 s⁻¹ | – | –
U65A U69G | 5.5e-05 ± 1.5e-05 s⁻¹ | – | 4.35e-05 ± 1.4e-05 s⁻¹ | 8.3e-05 ± 1.9e-05 s⁻¹ | – | 7.34e-05 ± 1.9e-05 s⁻¹ | –
G9U A39U C61A | 0.000456 ± 2.3e-05 s⁻¹ | 503 ± 58 µM | 0.000243 ± 6.2e-05 s⁻¹ | 0.000376 ± 0.00013 s⁻¹ | 0.00046 ± 0.00017 s⁻¹ | 0.000118 ± 4.8e-05 s⁻¹ | –
C11U A14G | 0.0102 ± 0.0018 s⁻¹ | 2230 ± 580 µM | 0.00207 ± 0.0003 s⁻¹ | 0.00674 ± 0.0012 s⁻¹ | 0.00811 ± 0.001 s⁻¹ | 0.000583 ± 0.00013 s⁻¹ | 0.000229 ± 4e-05 s⁻¹
U46A U54G | 0.00254 ± 0.00049 s⁻¹ | 1180 ± 400 µM | 0.00113 ± 0.00014 s⁻¹ | 0.00191 ± 0.00028 s⁻¹ | 0.00205 ± 0.00028 s⁻¹ | 0.000213 ± 5.2e-05 s⁻¹ | 8.77e-05 ± 2e-05 s⁻¹
G38U A48C A52C C71A | < 1e-05 s⁻¹ | – | – | – | < 1e-05 s⁻¹ | – | < 1e-05 s⁻¹
A15G G66C | 0.000786 ± 0.00011 s⁻¹ | 833 ± 220 µM | 0.000368 ± 6e-05 s⁻¹ | 0.000793 ± 0.00014 s⁻¹ | 0.000649 ± 9.7e-05 s⁻¹ | 0.000115 ± 2.5e-05 s⁻¹ | 3.37e-05 ± 1.1e-05 s⁻¹
A15G G66U | 0.00552 ± 0.0016 s⁻¹ | 5370 ± 2200 µM | 0.000492 ± 9.7e-05 s⁻¹ | 0.00161 ± 0.00029 s⁻¹ | 0.00374 ± 0.00049 s⁻¹ | 0.000169 ± 3.6e-05 s⁻¹ | 6.81e-05 ± 1.4e-05 s⁻¹
U30G U31A | 0.0147 ± 0.001 s⁻¹ | 914 ± 110 µM | – | – | 0.0137 ± 0.0031 s⁻¹ | – | 0.000631 ± 0.0002 s⁻¹
A15C G29U | 0.00341 ± 0.00015 s⁻¹ | 2200 ± 140 µM | 0.000757 ± 0.00012 s⁻¹ | 0.00169 ± 0.00042 s⁻¹ | 0.00285 ± 0.00042 s⁻¹ | – | 6.18e-05 ± 8.8e-06 s⁻¹
A14C G66C | 9.53e-05 ± 3.1e-06 s⁻¹ | 2140 ± 260 µM | – | 5.12e-05 ± 1.5e-05 s⁻¹ | 7.85e-05 ± 9.8e-06 s⁻¹ | – | –
U45G A48U | 0.000351 ± 8.1e-05 s⁻¹ | 3040 ± 1200 µM | 5.51e-05 ± 1.4e-05 s⁻¹ | 0.000209 ± 4.5e-05 s⁻¹ | 0.000246 ± 5.7e-05 s⁻¹ | – | –
A15C G32A U55A | 0.00195 ± 0.00087 s⁻¹ | – | 0.000233 ± 5.6e-05 s⁻¹ | 0.000416 ± 0.00012 s⁻¹ | 0.00137 ± 0.00022 s⁻¹ | 7.61e-05 ± 2.3e-05 s⁻¹ | –
C10A C70U | 2.11e-05 ± 9.5e-06 s⁻¹ | – | – | 2.56e-05 ± 1.3e-05 s⁻¹ | – | – | –
U46G A52U | 0.000165 ± 1.2e-05 s⁻¹ | – | – | 2.87e-05 ± 1.3e-05 s⁻¹ | 7.51e-05 ± 2.1e-05 s⁻¹ | < 1e-05 s⁻¹ | < 1e-05 s⁻¹
G41U U56A C70A | 0.0279 ± 0.012 s⁻¹ | – | 0.0096 ± 0.0018 s⁻¹ | 0.033 ± 0.0088 s⁻¹ | 0.0192 ± 0.0059 s⁻¹ | 0.00226 ± 0.00043 s⁻¹ | –
U45G A53G | 0.0084 ± 0.0028 s⁻¹ | 2020 ± 990 µM | 0.00204 ± 0.00042 s⁻¹ | 0.00535 ± 0.0012 s⁻¹ | 0.00681 ± 0.0011 s⁻¹ | 0.000367 ± 0.00012 s⁻¹ | 0.000258 ± 4.3e-05 s⁻¹
C11U C50G C58A | 0.000158 ± 1.6e-05 s⁻¹ | – | 0.000189 ± 3e-05 s⁻¹ | 0.000242 ± 0.00011 s⁻¹ | 0.000135 ± 2.2e-05 s⁻¹ | 0.00015 ± 1.7e-05 s⁻¹ | 0.000112 ± 3.6e-05 s⁻¹
G37A G43A | 2.89e-05 ± 3.1e-06 s⁻¹ | – | – | – | 2.52e-05 ± 8.5e-06 s⁻¹ | < 1e-05 s⁻¹ | < 1e-05 s⁻¹
